Assay results from US20240027454.

Experiments:
CMC 9M31F-AAPFA-RBB [1] = test system: CMC 9M31F-AAPFA-RBB
[2] = test system: T1, AAPVA-RBB linked to poly-(N-acroyl-Boc-Lys-OH)-co-(acroyl-Cys(Trt)-OH)
T1 sequence: AAPVX

[3] = test system: T2, 4-([4-(H-Ala-Ala-Pro-Val-Ala)amido N-piperazino]phenyl)-bis-(4-dimethyl-aminophenyl)-carbenium ion
T2 sequence: AAPVX

CMC 9M31F-AAPF-RBB [4] = test system: CMC 9M31F-AAPF-RBB
[5] = test system: Fmoc-AAPF-aminoethyl-(Remazol Black B)-(N-acetyl)-ethylamide
[6] = test system: T3, AAPVA-RBB linked to polymer, product of Step A of Example 62 after trifluoroacetic acid treatment
T3 sequence: AAPVX

[7] = target: T4, Poly-co-[(N-mercaptoethyl acrylamide)-(AAAPVV-{RBB}-acrylamide)], procedure a
T4 chain: AAAPVX

[8] = target: T5, AAAPVV-RBB polyacrylamide with N,N-dioctylamine anchors (not fully specified)
T5 chain: AAAPVX

[9] = target: T6, AAAPV-RBB polyacrylamide with N,N-dioctylamine anchors (not fully specified)
T6 chain: AAAPX

[10] = target: T7, Poly-co-[(N-mercaptoethyl acrylamide)-(AAAPVV-{RBB}-acrylamide)], procedure b
T7 chain: AAAPVX

Fmoc-APV-Indoxyl ester = target: T8, Fmoc-APV-Indoxyl ester
T8 chain: APV

[11] = target: HEC-EDR176-N-Propionyl-AAPVA-RBB
[12] = target: T9, Fmoc-F-V-T(Bzl)-F- indoxyl ester (not fully specified)
T9 chain: FVTF

[13] = target: Fmoc-AAPV-5-Bromo-4-Chloro-Indoxyl ester
[14] = target: T10, AAAPVV-RBB on polyacrylate bound to SiCore Amin beads, procedure f
T10 chain: AAAPVX

[15] = target: Fmoc-AAPV-4-naphthol ester
[16] = target: T11, N-[(3-triethoxysilyl)propyl]-N'-[AAAPVV-RBB]urea bound to silica gel (not fully specified)
T11 chain: XAAPVX

[17] = target: T12, AAAPV-RBB bound to Beads (Sephabeads ECEP, epoxy activated)
T12 chain: AAAPX

[18] = target: Fmoc-AAPV-4-methoxy-1-naphthol ester
[19] = target: T13, AAPVA-RBB linked to poly-(N-acroyl-Boc-Lys-OH)-co-(acroyl-Cys(Trt)-OH)
T13 chain: AAPVX

Fmoc-AAA-indoxyl ester = target: T14, Fmoc-AAA-indoxyl ester
T14 chain: AAA

[20] = target: T15, AAAPVV-RBB linked through Jeffamine EDR 176 to polyacrylate quenched with N,N-dioctyl amine (not fully specified)
T15 chain: AAAPVX

[21] = target: N-(Propionyl-AAPV-RBB)-Propylamino HEC
[22] = target: T16, Poly-co-[(N-mercaptoethyl acrylamide)-(AAAPV-{RBB}-acrylamide)], procedure a (not fully specified)
T16 chain: AAAPX

[23] = target: T17, AAPVA-RBB linked through ethylenediamine-glycyl spacer to polyacrylate (not fully specified)
T17 chain: AAPVX

[24] = target: T18, AAAPVV-RBB on polyacrylate bound to Chemicell SiCore Amin beads
T18 chain: AAAPVX

[25] = target: Peptide-Labelled beadBALL Amine Microspheres with Long-Chain Linker (PEG(2000)-AAPV-RBB)
H-AAAPM-RBB = target: T19, H-AAAPM-RBB
T19 chain: AAAPX

[26] = target: T20, Poly-co-[(N-mercaptoethyl acrylamide)-(AAAPV-{RBB}-acrylamide)], procedure b
T20 chain: AAAPX

[27] = target: T21, AAPVA-RBB linked to polymer, product of Step A of Example 62 after trifluoroacetic acid treatment (not fully specified)
T21 chain: AAPVX

[28] = target: T22, Non-bead-bound polymeric material of Example 67 (AAAPVV-RBB polyacrylamide quenched with ethanolamine) (not fully specified)
T22 chain: AAAPVX

[29] = target: T23, 4-([4-(H-Ala-Ala-Pro-Val-Ala)amido N-piperazino]phenyl)-bis-(4-dimethyl-aminophenyl)-carbenium ion polyacrylamide (not fully specified)
T23 chain: AAPVX

[30] = target: Fmoc-AAAPV-(N-acetyl)-indoxyl ester
[31] = target: T24, AAAPV-RBB linked through Jeffamine EDR 176 to polyacrylate quenched with N,N-dioctyl amine (not fully specified)
T24 chain: AAAPX

H-AAPVAA-RBB = target: T25, H-AAPVAA-RBB
T25 chain: AAPVAX

[32] = target: AAPVA-RBB Bound to Paper Membrane
H-AAPFA-RBB = target: T26, H-AAPFA-RBB
T26 chain: AAPFX

[33] = target: T27, Fmoc-AAPVAV-{2-hydroxy-3-[1-(5N-RBB-methyl)1,2,3-triazolyl)}propylamide
T27 chain: XAPVAX

[34] = target: HEC-EDA-N-propionyl-AAPF-RBB
[35] = target: Fmoc-AAPF-aminoethyl-(Remazol Black B)-(N-acetyl)-ethylamide; remark: listed apart in the source
[36] = target: HEC-PEG200-N-propionyl-AAPF-RBB
CMC 9M31F-AAPFA-RBB [37] = target: CMC 9M31F-AAPFA-RBB; remark: listed apart in the source
CMC 9M31F-AAPF-RBB [38] = target: CMC 9M31F-AAPF-RBB; remark: listed apart in the source

In the case of elastase, the “release of the dye, ESI MS” value (CMC 9M31F-AAPFA-RBB [1]) is reported as “Reaction with elastase was detected using ESI MS to detect the release of the dye”, the “release of Ala-RBB, MS-analysis” value [2] is reported as “Treatment with elastase released Ala-RBB, as found by MS-analysis (m/z=571, negative mode)” and the “release of A-CV, MS-analysis” value [3] is reported as “Treatment of the material with elastase released A-CV, as found by MS-analysis (m/z=484, positive mode)”. For the same molecule, the “release of the dye, ESI MS” value (CMC 9M31F-AAPF-RBB [4]) was “Reaction with elastase is detected using ESI MS to detect the release of the dye”, the “cleavage, product found by MS” value [5] was “reaction with elastase to yield the mono-acetylated-Remazol Black B-amino derivative” and the “release of Ahx-CV, MS-analysis” value (H-AAPV-Ahx-CV) was “Treatment of the product of Example 72 with elastase releases no Ahx-CV, as found by MS-analysis (no m/z=526, positive mode)”. For the same molecule, the “release of A-RBB, MS-analysis” value [6] was “Treatment with elastase released A-RBB, as found by MS-analysis (m/z=571, negative mode)”.

B1: human elastase from leucocytes (protein)
chain: IVGGRRARPHAWPFMVSLQLRGGHFCGATLIAPNFVMSAAHCVANVNVRAVRVVLGAHNLSRREPTRQVFAVQRIFENGYDPVNLLNDIVILQLNGSATINANVQVAQLPAQGRRLGNGVQCLAMGWGLLGRNRGIASVLQELNVTVVTSLCRRSNVCTLVRGRQAGVCFGDSGSPLVCNGLIHGIASFVRGGCASGLYPDAFAPVAQFVNWIDSIIQ
For B1, the “Human Elastase Cleavage” value [7] was “+++”, the “Human Elastase Cleavage” value [8] was “+++” and the “Human Elastase Cleavage” value [9] was “++”. The “Human Elastase Cleavage” value (Fmoc-AAPA-Indoxyl ester) was “+++”, the “Human Elastase Cleavage” value (AAPV-RBB-Labelled Silica) was “++” and the “Human Elastase Cleavage” value (Fmoc-AAPF-Indoxyl ester) was “+”. For the same molecule, the “Human Elastase Cleavage” value [10] was “+++”, the “Human Elastase Cleavage” value (Fmoc-APV-Indoxyl ester) was “+” and the “Human Elastase Cleavage” value [11] was “+++”. The “Human Elastase Cleavage” value [12] was 0, the “Human Elastase Cleavage” value (Fmoc-AAPV-Indoxyl ester) was “+++” and the “Human Elastase Cleavage” value [13] was “+++”. The “Human Elastase Cleavage” value [14] was 0, the “Human Elastase Cleavage” value (Fmoc-AAAPV-3-Indolamide) was “++” and the “Human Elastase Cleavage” value [15] was “+”. The “Human Elastase Cleavage” value [16] was “+++”, the “Human Elastase Cleavage” value [17] was 0 and the “Human Elastase Cleavage” value [18] was “+”. For the same molecule, the “Human Elastase Cleavage” value [19] was “+”, the “Human Elastase Cleavage” value (Fmoc-AAA-indoxyl ester) was “++” and the “Human Elastase Cleavage” value [20] was “+”. The “Human Elastase Cleavage” value [21] was “+++”, the “Human Elastase Cleavage” value [22] was “++” and the “Human Elastase Cleavage” value (Fmoc-AAAA-Indoxyl ester) was 0. The “Human Elastase Cleavage” value (Fmoc-AAPV-(2-Napthol)) was “+”, the “Human Elastase Cleavage” value (Fmoc-AAAPV-Indoxylester) was “++” and the “Human Elastase Cleavage” value [23] was “+”. For the same molecule, the “Human Elastase Cleavage” value [24] was 0, the “Human Elastase Cleavage” value [25] was 0 and the “Human Elastase Cleavage” value (H-AAAPM-RBB) was “+”. For the same molecule, the “Human Elastase Cleavage” value [26] was “++”, the “Human Elastase Cleavage” value [27] was “++” and the “Human Elastase Cleavage” value [28] was “+++”. The “Human Elastase Cleavage” value [29] was 0(+), the “release of A-CV, mass peak” value [29] was “Treatment with porcine and human elastase releases A-CV, as proven by the appearance of a mass peak at m/z=484” and the “Human Elastase Cleavage” value [30] was “++”. The “Human Elastase Cleavage” value [31] was “+”.

B2: cathepsin G (protein)
chain: IIGGRESRPHSRPYMAYLQIQSPAGQSRCGGFLVREDFVLTAAHCWGSNINVTLGAHNIQRRENTQQHITARRAIRHPQYNQRTIQNDIMLLQLSRRVRRNRNVNPVALPRAQEGLRPGTLCTVAGWGRVSMRRGTDTLREVQLRVQRDRQCLRIFGSYDPRRQICVGDRRERKAAFKGDSGGPLLCNNVAHGIVSYGKSSGVPPEVFTRVSSFLPWIRTTMRS
For B2, the “Cathepsin Cleavage” value (H-AAPVAA-RBB) was 0, the “Cathepsin Cleavage” value (Fmoc-AAPA-Indoxyl ester) was 0 and the “Cathepsin Cleavage” value [32] was 0. For the same molecule, the “Cathepsin Cleavage” value (H-AAPFA-RBB) was 0, the “Cathepsin Cleavage” value (Fmoc-AAAPM-RBB) was 0 and the “Cathepsin Cleavage” value (Fmoc-AAPF-Indoxyl ester) was 0. The “Cathepsin Cleavage” value (Fmoc-APV-Indoxyl ester) was 0, the “Cathepsin Cleavage” value [33] was 0 and the “Cathepsin Cleavage” value [12] was 0. For the same molecule, the “Cathepsin Cleavage” value [34] was “+”, the “Cathepsin Cleavage” value [15] was 0 and the “Cathepsin Cleavage” value [35] was 0. The “Cathepsin Cleavage” value [18] was 0, the “Cathepsin Cleavage” value [36] was “+” and the “Cathepsin Cleavage” value (Fmoc-AAA-indoxyl ester) was 0. For the same molecule, the “Cathepsin Cleavage” value (Fmoc-AAAA-Indoxyl ester) was 0, the “Cathepsin Cleavage” value (Fmoc-AAPV-(2-Napthol)) was 0 and the “Cathepsin Cleavage” value (H-AAPF-RBB) was 0. The “Cathepsin Cleavage” value (CMC 9M31F-AAPFA-RBB [37]) was “++”, the “Cathepsin Cleavage” value (CMC 9M31F-AAPF-RBB [38]) was “++” and the “Cathepsin Cleavage” value (H-AAAPM-RBB) was 0.
